Reference: PMC11685497 (Nature Communications, 2024)

How the values were obtained:
[1] = target: wild-type soluble CD73 (ecto-5'-nucleotidase), recombinant (human); test: cryo-EM structure
[2] = target: T1, wild-type soluble CD73 (ecto-5'-nucleotidase), recombinant (Homo sapiens); test: HDX-MS
T1 chain: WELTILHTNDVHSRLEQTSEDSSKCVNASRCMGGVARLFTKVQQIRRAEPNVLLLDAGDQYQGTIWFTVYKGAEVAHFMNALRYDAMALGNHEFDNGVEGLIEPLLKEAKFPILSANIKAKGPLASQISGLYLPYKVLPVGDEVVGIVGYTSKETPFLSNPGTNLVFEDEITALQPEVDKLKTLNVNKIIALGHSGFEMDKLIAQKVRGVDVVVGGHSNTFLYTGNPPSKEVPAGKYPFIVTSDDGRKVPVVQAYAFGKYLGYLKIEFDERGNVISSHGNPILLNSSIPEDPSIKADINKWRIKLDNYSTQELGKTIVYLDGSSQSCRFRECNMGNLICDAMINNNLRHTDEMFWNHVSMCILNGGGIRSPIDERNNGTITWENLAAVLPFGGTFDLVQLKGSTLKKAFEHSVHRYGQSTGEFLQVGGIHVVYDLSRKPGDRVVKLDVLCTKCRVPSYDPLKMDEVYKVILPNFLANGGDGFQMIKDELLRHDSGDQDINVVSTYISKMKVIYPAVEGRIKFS

[3] = target: T1, wild-type soluble CD73 …; test: negative-stain EM
[4] = target: human CD73, membrane-bound, on CHO-K1 cells (CHO-K1-huCD73-3F4) (Homo sapiens, UniProt P21589); test: flow cytometry on cells

Q: For “wild-type soluble CD73 (ecto-5'-nucleotidase), recombinant (enzyme)”, which stoichiometry N [1] is on record?
A: 2

B1: HB0039 Fab (Fab, V domains shown)
VH: QVQLVQSGAEVKKPGASVKLSCKASGYTFTSYWIHWVRQAPGQGLEWIGMIHPNSGSTYYNEKFKGRATLTVDKSTSTAYMELSSLRSEDTAVYYCARYYGSDYEWYFDVWGQGTTV
VL: IQMTQSPSSMSASVGDRVTITCKASQNVRTAVVWYQQKPGKAPKALIYLASNRHTGVPDRFSGSGSGTDFTLTISSLQPEDFATYFCLQHWNYPYTFGQGTKL
Q: Does B1 bind [2]?
A: binds

B2: HB0039 (humanized anti-human CD73 monoclonal IgG1, L234A/L235A) (antibody, V domains shown)
VH: QVQLVQSGAEVKKPGASVKLSCKASGYTFTSYWIHWVRQAPGQGLEWIGMIHPNSGSTYYNEKFKGRATLTVDKSTSTAYMELSSLRSEDTAVYYCARYYGSDYEWYFDVWGQGTTV
VL: IQMTQSPSSMSASVGDRVTITCKASQNVRTAVVWYQQKPGKAPKALIYLASNRHTGVPDRFSGSGSGTDFTLTISSLQPEDFATYFCLQHWNYPYTFGQGTKL
Q: Which results are given for B2?
A: binding result [3]: binds; EC50 [4]: 0.24 nM

B3: HB0038 (humanized anti-human CD73 monoclonal IgG1, L234A/L235A) (antibody, V domains shown)
VH: QVQLVESGGGLVKPGGSLRLSCAASGFTFSKYAMSWIRQAPGKGLEWVAEISSGGGYINYADSVKGRFTISRDNAKNSLYLQMNSLRAEDTAVYYCARAIYYYGSSYNYYAMDYWGQGTTVTVS
VL: DIQMTQSPSSLSASVGDRVTITCRASQDVGTAEAWYQQKPGKAPKLLIYWASTRHTGVPSRFSGSGSGTDFTLTISSLQPEDFATYYCQQYSSYPLTFGQGTKL
Q: Does B3 bind [2]?
A: binds

Q: And the EC50 [4]?
A: 11.8 nM

B4: HB0038 Fab (Fab, V domains shown)
VH: QVQLVESGGGLVKPGGSLRLSCAASGFTFSKYAMSWIRQAPGKGLEWVAEISSGGGYINYADSVKGRFTISRDNAKNSLYLQMNSLRAEDTAVYYCARAIYYYGSSYNYYAMDYWGQGTTVTVS
VL: DIQMTQSPSSLSASVGDRVTITCRASQDVGTAEAWYQQKPGKAPKLLIYWASTRHTGVPSRFSGSGSGTDFTLTISSLQPEDFATYYCQQYSSYPLTFGQGTKL
Q: Does B4 bind [3]?
A: binds
